Changes are numbered by the printed parent chain. No end group written: not given here.
Experiments:
[1] = target: T1, S. pombe αWD40 Arg300Ala mutant (S. pombe, UniProt Q96WV5 1-327, Arg300Ala); test: BLI
T1 sequence: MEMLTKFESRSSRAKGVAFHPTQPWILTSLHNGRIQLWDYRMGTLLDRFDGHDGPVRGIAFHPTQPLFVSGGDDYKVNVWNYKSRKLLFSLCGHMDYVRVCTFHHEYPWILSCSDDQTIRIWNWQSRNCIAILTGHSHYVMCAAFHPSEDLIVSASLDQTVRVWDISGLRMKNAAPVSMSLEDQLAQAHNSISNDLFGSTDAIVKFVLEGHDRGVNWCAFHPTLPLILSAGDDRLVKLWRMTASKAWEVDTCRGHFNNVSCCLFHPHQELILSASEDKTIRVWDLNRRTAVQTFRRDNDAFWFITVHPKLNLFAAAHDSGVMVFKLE

[2] = target: T2, S. cerevisiae β’WD40 domain (N-terminal WD40 domain of β’-COPI), wild type (S. cerevisiae, UniProt P41811 1-300); test: BLI
T2 sequence: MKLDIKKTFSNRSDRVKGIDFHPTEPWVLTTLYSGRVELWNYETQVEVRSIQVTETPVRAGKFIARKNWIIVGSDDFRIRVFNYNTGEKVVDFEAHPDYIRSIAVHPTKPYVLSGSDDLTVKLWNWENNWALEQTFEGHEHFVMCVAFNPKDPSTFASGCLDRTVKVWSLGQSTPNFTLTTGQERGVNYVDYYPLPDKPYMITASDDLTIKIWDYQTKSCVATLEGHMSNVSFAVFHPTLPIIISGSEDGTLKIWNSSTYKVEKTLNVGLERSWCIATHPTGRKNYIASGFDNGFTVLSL

[3] = target: T3, S. pombe αWD40 Tyr139Ala mutant (S. pombe, UniProt Q96WV5 1-327, Tyr139Ala); test: BLI
T3 sequence: T1 sequence with Y139A, A300R

[4] = target: T4, S. pombe αWD40 Arg13Ala mutant (S. pombe, UniProt Q96WV5 1-327, Arg13Ala); test: BLI
T4 sequence: T1 sequence with R13A, A300R

[5] = target: T2, S. cerevisiae β’WD40 domain (N-terminal …); test: NMR titration
[6] = target: T5, S. pombe αWD40 domain (N-terminal WD40 domain of α-COPI), wild type (S. pombe, UniProt Q96WV5 1-327); test: BLI
T5 sequence: T1 sequence with A300R

B1: clientized (Thr1273Glu) SARS-CoV-2 S tail heptapeptide (residues 1267-1273), biotinylated (peptide)
peptide: GVKLHYE
modifications: also: biotinylated
Kd [1]: 4.2 ± 0.4 µM
Kd [2]: 2.3 ± 0.23 µM
Kd [3]: 3.8 ± 0.36 µM

B2: wild-type SARS-CoV-2 S tail heptapeptide (residues 1267-1273), biotinylated (peptide)
peptide: GVKLHYT
modifications: also: biotinylated
Kd [1]: 3.6 ± 0.4 µM
binding result [4]: binds

B3: 15N-labeled clientized (Thr1273Glu) SARS-CoV-2 S C-terminal tail peptide (NMR) (peptide)
peptide: CCKFDEDDSEPVLKGVKLHYE
modifications: cysteine pairing not given here; also: 15N isotope label
binding result [5]: binds

B4: amidated clientized (Thr1273Glu) S heptapeptide (C-terminal main chain carboxylate amidated), biotinylated (peptide)
peptide: GVKLHYE-NH2
modifications: also: biotinylated
binding result [6]: binds

Reference: doi:10.1101/2023.03.09.531992 (bioRxiv, 2023)
